Results from patent US20240327522A1 (Genentech, published 2024).

Columns and labels:
human αvβ1 = target: T1, human αvβ1 (human, UniProt P06756 31-992; P05556 21-728); assay: SPR binding assay, sample hu.aVb1,3,5,6
T1 construct: Counter-screen integrin; construct not described; also called hu.aVb1; αVP1

human αvβ3 = target: T2, human αvβ3 (human, UniProt P06756 31-992; P05106 27-718); assay: SPR binding assay, sample hu.aVb1,3,5,6
T2 construct: Counter-screen integrin; construct not described; also called hu.aVb3; αV03
T2 sequence (P05106 27-718 limits assumed, chain 2 of 2, one chain of several): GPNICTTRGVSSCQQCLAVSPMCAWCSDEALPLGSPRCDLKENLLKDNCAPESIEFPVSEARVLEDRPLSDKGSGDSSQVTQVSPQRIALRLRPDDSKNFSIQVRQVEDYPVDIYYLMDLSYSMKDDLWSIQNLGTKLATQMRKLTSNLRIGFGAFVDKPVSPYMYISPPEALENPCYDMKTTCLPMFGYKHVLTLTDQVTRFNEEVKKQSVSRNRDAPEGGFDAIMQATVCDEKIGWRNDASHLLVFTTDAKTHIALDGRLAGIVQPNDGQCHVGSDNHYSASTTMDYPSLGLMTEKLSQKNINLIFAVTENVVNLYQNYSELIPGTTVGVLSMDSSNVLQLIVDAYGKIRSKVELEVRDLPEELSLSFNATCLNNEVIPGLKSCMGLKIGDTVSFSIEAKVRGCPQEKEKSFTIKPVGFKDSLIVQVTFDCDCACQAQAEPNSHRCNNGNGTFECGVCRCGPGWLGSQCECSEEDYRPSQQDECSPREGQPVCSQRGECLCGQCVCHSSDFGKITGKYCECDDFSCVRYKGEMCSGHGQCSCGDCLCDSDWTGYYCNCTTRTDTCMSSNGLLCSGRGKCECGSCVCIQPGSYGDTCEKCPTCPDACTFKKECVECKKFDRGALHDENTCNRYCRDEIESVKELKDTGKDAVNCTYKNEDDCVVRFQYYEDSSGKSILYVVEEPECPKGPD

human αvβ6 = target: T3, human αvβ6 (human, UniProt P06756 31-992; P18564 22-709); assay: SPR binding assay, sample hu.aVb1,3,5,6
T3 construct: Counter-screen integrin; construct not described; also called hu.aVb6; αV06
T3 sequence (P18564 22-709 limits assumed, one chain of several): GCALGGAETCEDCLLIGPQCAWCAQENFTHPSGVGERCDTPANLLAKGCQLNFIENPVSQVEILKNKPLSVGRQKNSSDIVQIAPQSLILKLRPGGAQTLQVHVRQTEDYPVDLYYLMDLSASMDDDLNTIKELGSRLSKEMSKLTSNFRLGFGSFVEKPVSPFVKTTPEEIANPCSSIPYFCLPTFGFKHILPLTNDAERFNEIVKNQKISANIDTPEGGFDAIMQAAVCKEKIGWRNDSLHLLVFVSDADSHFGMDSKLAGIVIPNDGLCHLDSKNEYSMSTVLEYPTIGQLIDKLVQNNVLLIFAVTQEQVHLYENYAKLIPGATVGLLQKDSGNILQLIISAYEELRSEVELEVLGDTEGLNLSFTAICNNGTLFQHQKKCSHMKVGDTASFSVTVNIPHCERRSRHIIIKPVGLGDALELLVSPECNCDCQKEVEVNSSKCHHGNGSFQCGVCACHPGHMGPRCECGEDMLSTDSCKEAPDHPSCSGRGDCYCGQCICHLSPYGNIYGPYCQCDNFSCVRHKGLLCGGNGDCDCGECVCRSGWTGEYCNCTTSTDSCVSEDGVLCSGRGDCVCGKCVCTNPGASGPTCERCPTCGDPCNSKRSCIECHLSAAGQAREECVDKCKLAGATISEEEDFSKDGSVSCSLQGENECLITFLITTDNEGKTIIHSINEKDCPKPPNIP

[1] = target: T4, recombinant human αvβ8 protein (PARS-17102) (human); assay: SPR binding assay, experiment 2, antibody as ligand, aVb8 as sample
T4 construct: also called hu.aVb8.17102; not shown: C-terminal acid/basic coils and any purification tags
T4 alpha: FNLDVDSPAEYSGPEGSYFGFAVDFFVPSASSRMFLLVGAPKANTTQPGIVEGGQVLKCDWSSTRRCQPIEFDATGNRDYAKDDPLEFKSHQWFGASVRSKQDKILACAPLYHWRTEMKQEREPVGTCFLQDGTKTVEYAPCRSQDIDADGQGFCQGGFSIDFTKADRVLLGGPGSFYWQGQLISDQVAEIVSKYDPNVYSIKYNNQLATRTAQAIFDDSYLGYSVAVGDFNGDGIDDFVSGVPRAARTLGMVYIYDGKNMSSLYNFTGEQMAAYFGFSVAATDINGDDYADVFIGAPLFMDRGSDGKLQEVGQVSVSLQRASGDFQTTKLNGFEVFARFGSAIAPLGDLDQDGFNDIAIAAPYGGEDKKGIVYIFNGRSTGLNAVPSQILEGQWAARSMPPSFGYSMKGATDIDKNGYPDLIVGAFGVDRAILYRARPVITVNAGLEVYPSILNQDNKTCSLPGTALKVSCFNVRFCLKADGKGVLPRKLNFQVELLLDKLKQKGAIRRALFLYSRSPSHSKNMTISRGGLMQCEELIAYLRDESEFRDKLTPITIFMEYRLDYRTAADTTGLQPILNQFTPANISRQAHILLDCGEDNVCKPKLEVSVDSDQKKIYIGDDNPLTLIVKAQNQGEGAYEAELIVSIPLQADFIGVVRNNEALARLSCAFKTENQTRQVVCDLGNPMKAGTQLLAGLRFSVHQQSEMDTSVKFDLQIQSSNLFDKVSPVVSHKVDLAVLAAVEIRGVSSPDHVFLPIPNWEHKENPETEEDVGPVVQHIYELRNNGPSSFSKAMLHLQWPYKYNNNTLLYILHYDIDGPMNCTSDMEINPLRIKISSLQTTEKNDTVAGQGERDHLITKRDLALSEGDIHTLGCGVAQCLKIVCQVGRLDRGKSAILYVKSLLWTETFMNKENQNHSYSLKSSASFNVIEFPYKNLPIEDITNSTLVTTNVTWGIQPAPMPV
T4 beta: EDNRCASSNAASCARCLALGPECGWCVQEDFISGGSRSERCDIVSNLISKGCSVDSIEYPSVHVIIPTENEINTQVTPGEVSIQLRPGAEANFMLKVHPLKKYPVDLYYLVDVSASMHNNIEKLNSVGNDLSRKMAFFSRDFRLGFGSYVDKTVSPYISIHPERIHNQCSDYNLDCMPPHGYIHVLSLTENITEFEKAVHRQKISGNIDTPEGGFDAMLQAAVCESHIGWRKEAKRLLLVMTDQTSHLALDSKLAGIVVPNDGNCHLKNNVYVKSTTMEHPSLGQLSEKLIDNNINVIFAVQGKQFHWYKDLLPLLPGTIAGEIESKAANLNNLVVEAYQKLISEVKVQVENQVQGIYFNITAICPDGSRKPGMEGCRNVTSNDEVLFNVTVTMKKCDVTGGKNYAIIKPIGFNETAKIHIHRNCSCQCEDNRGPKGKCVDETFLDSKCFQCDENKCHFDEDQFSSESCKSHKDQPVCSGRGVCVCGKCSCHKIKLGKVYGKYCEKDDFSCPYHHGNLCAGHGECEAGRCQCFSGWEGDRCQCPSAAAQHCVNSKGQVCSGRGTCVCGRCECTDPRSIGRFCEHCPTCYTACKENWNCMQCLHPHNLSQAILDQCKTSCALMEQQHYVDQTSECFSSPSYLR

[2] = target: T5, recombinant mouse αvβ8 protein (PARS-17103) (murine, UniProt P43406 31-988; Q0VBD0 43-681, limits assumed); assay: as above
T5 construct: Made in house; also called mu.aVb8.17103
T5 sequence (P43406 31-988 limits assumed, chain 1 of 2): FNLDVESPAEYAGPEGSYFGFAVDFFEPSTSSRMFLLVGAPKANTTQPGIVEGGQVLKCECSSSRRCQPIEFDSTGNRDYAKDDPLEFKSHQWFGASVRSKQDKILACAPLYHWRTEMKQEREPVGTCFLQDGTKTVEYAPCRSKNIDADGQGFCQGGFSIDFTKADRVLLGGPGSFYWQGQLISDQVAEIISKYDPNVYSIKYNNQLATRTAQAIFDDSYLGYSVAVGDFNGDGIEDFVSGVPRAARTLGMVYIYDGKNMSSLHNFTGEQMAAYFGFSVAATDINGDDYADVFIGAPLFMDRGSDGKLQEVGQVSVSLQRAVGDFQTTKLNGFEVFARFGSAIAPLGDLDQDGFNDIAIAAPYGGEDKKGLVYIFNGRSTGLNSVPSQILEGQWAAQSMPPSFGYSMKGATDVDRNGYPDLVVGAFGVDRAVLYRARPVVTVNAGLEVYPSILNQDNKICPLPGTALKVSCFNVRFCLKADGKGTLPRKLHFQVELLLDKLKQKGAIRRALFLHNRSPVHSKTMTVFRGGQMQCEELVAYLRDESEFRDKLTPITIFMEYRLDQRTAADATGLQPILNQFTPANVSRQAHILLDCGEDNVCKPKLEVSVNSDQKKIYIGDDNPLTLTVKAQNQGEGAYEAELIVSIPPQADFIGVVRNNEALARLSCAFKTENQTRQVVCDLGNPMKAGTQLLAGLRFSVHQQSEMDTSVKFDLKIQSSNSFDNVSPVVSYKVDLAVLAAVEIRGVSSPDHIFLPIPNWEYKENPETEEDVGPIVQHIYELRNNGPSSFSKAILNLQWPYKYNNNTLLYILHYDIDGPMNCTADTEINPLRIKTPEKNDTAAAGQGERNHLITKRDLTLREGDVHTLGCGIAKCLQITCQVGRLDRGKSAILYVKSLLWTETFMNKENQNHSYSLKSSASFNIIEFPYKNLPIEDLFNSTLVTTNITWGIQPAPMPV
T5 sequence (Q0VBD0 43-681 limits assumed, chain 2 of 2): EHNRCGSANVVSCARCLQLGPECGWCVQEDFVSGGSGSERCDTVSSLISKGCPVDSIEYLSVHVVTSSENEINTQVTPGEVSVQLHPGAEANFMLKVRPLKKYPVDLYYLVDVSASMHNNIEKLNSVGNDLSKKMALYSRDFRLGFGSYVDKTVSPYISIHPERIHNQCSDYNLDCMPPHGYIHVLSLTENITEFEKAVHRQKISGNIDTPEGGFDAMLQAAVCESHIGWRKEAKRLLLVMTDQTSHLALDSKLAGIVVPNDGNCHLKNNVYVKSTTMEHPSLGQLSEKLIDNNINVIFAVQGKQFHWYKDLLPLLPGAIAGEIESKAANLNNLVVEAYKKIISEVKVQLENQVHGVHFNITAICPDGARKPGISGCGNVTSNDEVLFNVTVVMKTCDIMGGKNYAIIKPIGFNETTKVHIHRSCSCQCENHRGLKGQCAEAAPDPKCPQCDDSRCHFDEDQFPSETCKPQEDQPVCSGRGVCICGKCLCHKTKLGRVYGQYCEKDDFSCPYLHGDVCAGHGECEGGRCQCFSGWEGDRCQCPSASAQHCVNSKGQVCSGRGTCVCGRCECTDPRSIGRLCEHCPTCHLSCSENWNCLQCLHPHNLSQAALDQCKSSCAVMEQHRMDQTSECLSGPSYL

cyno.aVb8.13650 = target: T6, cyno.aVb8.13650 (cynomolgus, UniProt A0A2K5WCD3 31-992; G7P0S0 43-684); assay: as above
T6 construct: Carries another lot/construct number than cyno.aVb8-19393; kept apart; also called cynomolgus αvβ8

T1 sequence (P05556 21-728 limits assumed, one chain of several): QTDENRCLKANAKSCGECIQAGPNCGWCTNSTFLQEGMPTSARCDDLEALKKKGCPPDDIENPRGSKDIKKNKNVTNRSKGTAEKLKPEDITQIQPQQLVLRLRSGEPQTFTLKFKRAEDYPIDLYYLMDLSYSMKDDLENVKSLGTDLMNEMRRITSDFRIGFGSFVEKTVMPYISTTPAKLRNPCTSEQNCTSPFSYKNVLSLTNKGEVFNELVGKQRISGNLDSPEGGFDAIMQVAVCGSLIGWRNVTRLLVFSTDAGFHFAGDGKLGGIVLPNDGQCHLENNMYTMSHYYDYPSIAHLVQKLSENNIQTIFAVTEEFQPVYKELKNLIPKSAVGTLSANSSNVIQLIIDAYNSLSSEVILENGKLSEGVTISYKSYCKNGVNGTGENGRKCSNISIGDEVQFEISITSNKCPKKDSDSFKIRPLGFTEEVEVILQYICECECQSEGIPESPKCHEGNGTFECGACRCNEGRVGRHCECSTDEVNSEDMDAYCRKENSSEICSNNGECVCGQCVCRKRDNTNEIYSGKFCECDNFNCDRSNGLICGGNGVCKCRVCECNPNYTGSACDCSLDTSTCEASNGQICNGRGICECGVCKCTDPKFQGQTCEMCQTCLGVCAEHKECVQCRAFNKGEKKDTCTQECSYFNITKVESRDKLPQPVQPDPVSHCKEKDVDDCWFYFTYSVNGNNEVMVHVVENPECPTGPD

binding result (human αvβ1): no binding | binding result (human αvβ3): no binding | binding result (human αvβ6): no binding | Kd [1]: 1.04 nM | koff [1]: 0.000181 s⁻¹ | kon [1]: 174000 M⁻¹ s⁻¹ | Kd [2]: 1.23 nM | koff [2]: 0.000152 s⁻¹ | kon [2]: 123000 M⁻¹ s⁻¹ | Kd (cyno.aVb8.13650): 2.41 nM | koff (cyno.aVb8.13650): 0.000151 s⁻¹ | kon (cyno.aVb8.13650): 62700 M⁻¹ s⁻¹
B1: Hu.aVb8-65.H15L2 (aVb8-65.H15L2.hIgG1.LALAPG) (antibody, V domains shown)
VH: EVQLLESGGGLVQPGGSLRLSCAASGIDLSNYAMIWVRQAPGKGLEWVGIISSSDRIWYASWVKGRFTISRDNSKNTLYLQMNSLRAEDTAVYYCSRSVSNSYFDGWNLWGQGTLVTVSS
VL: DIQMTQSPSSVSASVGDRVTITCQASENINSLLAWYQQKPGKAPKLLIYRASTLASGVPSRFSGSGSGTDFTLTISSLQPEDFATYYCQSNYGFTGSGAFFYGFGQGTKVEIKR
notes: Human IgG1 LALAPG; also called PARS-20475-65 (IH) aVb8-65.H15L2.hIgG1.LALAPG; humanized αvβ8-65
